For data set [1], the target named is cYFP-Zif268 chimera. Description: EMSA; full oligo sequence not given; text states low nanomolar affinity without values. For orientation: In EMSA bound probe runs differently from free probe, usually more slowly.
Data set [2] concerns the target cYFP-Zif268 chimera. Description: SPR; random scaffold reference, 1 uM protein; used to correct for unspecific binding.
Data set [3] has as its target PBSII-nYFP chimera (artificial). Description: EMSA; full oligo sequence not given; text states low nanomolar affinity without values. The settings on record: tags: nYFP C-terminal fusion, His.
Data set [4] addresses MBP-ZFa (OZ052) (artificial). The data set can be described thus: EMSA; biotinylated oligo, flanks not given; chimera-DNA dimer also seen; text states low nanomolar affinity without values. Particulars: label: 5'-biotin. As to the method: (§1) From this analysis, the amount of ZF-chimera present in cells was estimated at approximately 5000 per cell or 8 μM. The plasmid concentration in cells was determined to be approximately 127 per cell or […]. These values were used to design/select ZF domains with appropriate affinity and to design DNA scaffolds with enough binding sites to accommodate all ZF fusion proteins. FIG. 4B is a western blot analysis comparing the soluble and insoluble protein levels of unmodified MBP with MBP fused to 1, 2, 3 or 4 fingers as indicated. Flow cytometric analysis of cellular fluorescence levels of superfolder green fluorescent protein (sfGFP) fused to increasing number of fingers as indicated (FIG. 4B; right). FIG. 4C is an EMSA of purified PBSII-nYFP and cYFP-Zif268 chimeras using […] DNA with PBSII or Zif268 binding sites. MW, molecular weight ladder. Arrow indicates chimera-DNA complexes. EMSA of purified MBP-ZFa, MBP-ZFb and MBP-ZFc chimeras using varying amounts of biotinylated DNA containing the ZFa, ZFb or ZFc binding site is shown in FIG. 4D. Detection of DNA and DNA-protein complexes was with streptavidin-HRP against biotinylated DNA. […]
(§2) For EMSA with PBSII and Zif268, 1 μg of the purified PBSII-nYFP and cYFP-Zif268 chimeras were incubated with 375 μM scaffold DNA for 3 h. […] Nucleic acid-protein complexes were detected under UV light. […]

In data set [5] the target is MBP-ZFb (OZ300) (artificial). The data set can be described thus: EMSA; biotinylated oligo, flanks not given; text states low nanomolar affinity without values. Particulars: label: 5'-biotin. As to the method: as §1, §2
MBP-ZFb (OZ300) (artificial), sequence (chain, as listed by the source): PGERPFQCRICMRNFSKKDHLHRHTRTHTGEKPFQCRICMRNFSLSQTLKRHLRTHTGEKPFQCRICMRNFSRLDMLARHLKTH
Data set [6] deals with PBSII-nYFP chimera (artificial). The data set can be described thus: SPR; injected as mixture with cYFP-Zif268, 5 uM; same SPR buffer with 0.1 mM ZnCl2. The settings on record: tags: nYFP C-terminal fusion, His. Here is the method: Proteins that were directly dialyzed against buffer A (see above) were used in surface plasmon resonance (SPR) experiments. Proteins were further concentrated using Amicon Ultra-15 Centrifugal Filter Unit with Ultracel-10 membrane. The experiments were conducted using T100 apparatus (GE Healthcare, Biacore) and streptavidin-coated sensor chip (SA). […] The biotinylated single-stranded anchor DNA (5′-CGCTCGAGTAGTAAC-3′-Biotin; SEQ ID NO: 41) was immobilized on all four flow-cells. The anchor allowed capture of the double-stranded DNA molecule with complementary overhang. A DNA scaffold (5′-[…]-3′; SEQ ID NO: 42) was used that contained ZF binding sites for Zif268 and PBSII (underlined), respectively. Control DNA (5′-[…]-3′; SEQ ID NO: 43) contained a scrambled version of the scaffold and was used to correct the responses for unspecific binding of ZF chimeras. The control DNA was immobilized in the first flow-cell, while the DNA scaffold was used in the second flow cell. Typically, immobilization of control and scaffold DNA used 0.5 μM DNA and was performed for 5 min at 5 μl/min. Protein binding was measured following injection of appropriate concentration of PBSII-nYFP and/or cYFP-Zif268 chimeras in the SPR buffer. The surface of the sensor chip was regenerated by two 30 s injections of 50 mM NaOH that removed the DNA from the anchor.
PBSII-nYFP chimera (artificial), sequence (chain, as listed by the source mutant): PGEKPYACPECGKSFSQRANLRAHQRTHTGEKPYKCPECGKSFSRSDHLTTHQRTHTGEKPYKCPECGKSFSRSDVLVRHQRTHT

The target of data set [7] is cYFP-Zif268 chimera. The data set can be described thus: SPR; 20 mM HEPES pH 7.4, 150 mM NaCl, 2 mM DTT, 0.1 mM ZnCl2; 1 and 5 uM protein. For orientation: In SPR one partner is held on a chip, and binding of the other changes the refractive index at the surface.
Data set [8] has as its target MBP-ZFc (OZ076) (artificial). The data set can be described thus: EMSA; biotinylated oligo, flanks not given; text states low nanomolar affinity without values. The settings on record: label: 5'-biotin. As to the method: as §1, §2

Experimental findings from US20130130347, “CONSTRUCTS AND METHODS FOR THE ASSEMBLY OF BIOLOGICAL PATHWAYS” (CORNELL UNIVERSITY, published 2013) are described below.

MBP-ZFa (OZ052) (artificial), sequence (chain, as listed by the source): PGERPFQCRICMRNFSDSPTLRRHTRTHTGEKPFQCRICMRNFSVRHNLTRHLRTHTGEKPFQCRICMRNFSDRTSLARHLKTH
MBP-ZFc (OZ076) (artificial), sequence (chain, as listed by the source): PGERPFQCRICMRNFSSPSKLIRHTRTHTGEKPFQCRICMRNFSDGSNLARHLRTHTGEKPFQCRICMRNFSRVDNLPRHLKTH

B1: Zif268 binding site DNA (dsDNA)
DNA 1: GCGTGGGCG
DNA 2: CGCCCACGC
With B1, in data set [1], the binding result is on record as “binds”.

B2: scrambled control scaffold (dsDNA)
DNA 1: GTTACTACTCGAGCGGAATTCATCTAAGTTACTAGAGTCCTTATAGTTGACTCTTGTTCCACATTCTACTGTACACGCTCAGTACTCGAGCATACCTATCTCCTGCAGTACA
DNA 2: TGTACTGCAGGAGATAGGTATGCTCGAGTACTGAGCGTGTACAGTAGAATGTGGAACAAGAGTCAACTATAAGGACTCTAGTAACTTAGATGAATTCCGCTCGAGTAGTAAC
For B2, the binding result in data set [2] is “no binding”.

B3: PBSII binding site DNA (dsDNA)
DNA 1: GTGTGGAAA
DNA 2: TTTCCACAC
Turning to B3, the binding result in data set [3] is recorded as “binds”.

B4: ZFa binding site DNA (dsDNA)
DNA 1: GTCGATGCC
DNA 2: GGCATCGAC
For B4, the binding result in data set [4] is “binds”.

B5: ZFb binding site DNA (dsDNA)
DNA 1: GCGGCTGGG
DNA 2: CCCAGCCGC
B5: the binding result in data set [5] is “binds”.

B6: DNA scaffold with Zif268 and PBSII sites, 2-bp spacer (dsDNA)
DNA 1: GTTACTACTCGAGCGATCGGAATTCGAAGGGGAATTGCTGCTGCGGTGTTTGGATGGAGCGTGGGCGGGGTGTGGAAATTGATGCTGCATTGACCACCCAAGACGACTGCAGTACA
DNA 2: TGTACTGCAGTCGTCTTGGGTGGTCAATGCAGCATCAATTTCCACACCCCGCCCACGCTCCATCCAAACACCGCAGCAGCAATTCCCCTTCGAATTCCGATCGCTCGAGTAGTAAC
For B6, the binding result in data set [6] and in data set [7] was “binds” throughout.

B7: ZFc binding site DNA (dsDNA)
DNA 1: GAGGACGGC
DNA 2: GCCGTCCTC
In the case of B7, the binding result in data set [8] was “binds”.
